Sequences and labels used below:
T1: human glucose-dependent insulinotropic polypeptide receptor (human, UniProt P48546 22-466)
T1 sequence (looked up): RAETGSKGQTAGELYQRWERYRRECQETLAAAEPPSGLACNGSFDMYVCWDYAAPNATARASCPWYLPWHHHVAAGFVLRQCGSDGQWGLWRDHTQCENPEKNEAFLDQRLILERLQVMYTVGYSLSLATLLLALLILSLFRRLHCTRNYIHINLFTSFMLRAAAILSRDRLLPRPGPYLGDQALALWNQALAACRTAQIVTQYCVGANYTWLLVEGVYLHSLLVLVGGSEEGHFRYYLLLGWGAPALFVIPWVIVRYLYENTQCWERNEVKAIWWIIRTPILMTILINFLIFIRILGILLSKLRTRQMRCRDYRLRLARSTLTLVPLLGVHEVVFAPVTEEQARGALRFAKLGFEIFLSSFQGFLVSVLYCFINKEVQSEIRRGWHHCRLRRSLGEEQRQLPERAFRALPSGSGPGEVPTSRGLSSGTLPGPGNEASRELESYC

B1: Compound No. 0106 (peptide)
peptide: H[Aib]HGTFTSDYSK[αMeY]LEK([AEEA-AEEA-γGlu-C17 diacid])KAAQEFVEWLLAGGPSSGAPPPS-NH2
modifications: N-terminus assumed
SMILES: CC(C)C[C@H](NC(=O)[C@H](CC(C)C)NC(=O)[C@H](Cc1c[nH]c2ccccc12)NC(=O)[C@H](CCC(=O)O)NC(=O)[C@@H](NC(=O)[C@H](Cc1ccccc1)NC(=O)[C@H](CCC(=O)O)NC(=O)[C@H](CCC(N)=O)NC(=O)[C@H](C)NC(=O)[C@H](C)NC(=O)[C@H](CCCCN)NC(=O)[C@H](CCCCNC(=O)COCCOCCNC(=O)COCCOCCNC(=O)CC[C@H](NC(=O)CCCCCCCCCCCCCCCC(=O)O)C(=O)O)NC(=O)[C@H](CCC(=O)O)NC(=O)[C@H](CC(C)C)NC(=O)[C@](C)(Cc1ccc(O)cc1)NC(=O)[C@H](CCCCN)NC(=O)[C@H](CO)NC(=O)[C@H](Cc1ccc(O)cc1)NC(=O)[C@H](CC(=O)O)NC(=O)[C@H](CO)NC(=O)[C@@H](NC(=O)[C@H](Cc1ccccc1)NC(=O)[C@@H](NC(=O)CNC(=O)[C@H](Cc1c[nH]cn1)NC(=O)C(C)(C)NC(=O)[C@@H](N)Cc1c[nH]cn1)[C@@H](C)O)[C@@H](C)O)C(C)C)C(=O)N[C@@H](C)C(=O)NCC(=O)NCC(=O)N1CCC[C@H]1C(=O)N[C@@H](CO)C(=O)N[C@@H](CO)C(=O)NCC(=O)N[C@@H](C)C(=O)N1CCC[C@H]1C(=O)N1CCC[C@H]1C(=O)N1CCC[C@H]1C(=O)N[C@@H](CO)C(N)=O
B2: Compound No. 0104 (peptide)
peptide: H[Aib]HGTFTSDYS[αMeK]YLEK([AEEA-AEEA-γGlu-C20 diacid])KAAQEFVEWLLAGGPSSGAPPPS-NH2
modifications: N-terminus assumed
SMILES: CC(C)C[C@H](NC(=O)[C@H](CC(C)C)NC(=O)[C@H](Cc1c[nH]c2ccccc12)NC(=O)[C@H](CCC(=O)O)NC(=O)[C@@H](NC(=O)[C@H](Cc1ccccc1)NC(=O)[C@H](CCC(=O)O)NC(=O)[C@H](CCC(N)=O)NC(=O)[C@H](C)NC(=O)[C@H](C)NC(=O)[C@H](CCCCN)NC(=O)[C@H](CCCCNC(=O)COCCOCCNC(=O)COCCOCCNC(=O)CC[C@H](NC(=O)CCCCCCCCCCCCCCCCCCC(=O)O)C(=O)O)NC(=O)[C@H](CCC(=O)O)NC(=O)[C@H](CC(C)C)NC(=O)[C@H](Cc1ccc(O)cc1)NC(=O)[C@](C)(CCCCN)NC(=O)[C@H](CO)NC(=O)[C@H](Cc1ccc(O)cc1)NC(=O)[C@H](CC(=O)O)NC(=O)[C@H](CO)NC(=O)[C@@H](NC(=O)[C@H](Cc1ccccc1)NC(=O)[C@@H](NC(=O)CNC(=O)[C@H](Cc1c[nH]cn1)NC(=O)C(C)(C)NC(=O)[C@@H](N)Cc1c[nH]cn1)[C@@H](C)O)[C@@H](C)O)C(C)C)C(=O)N[C@@H](C)C(=O)NCC(=O)NCC(=O)N1CCC[C@H]1C(=O)N[C@@H](CO)C(=O)N[C@@H](CO)C(=O)NCC(=O)N[C@@H](C)C(=O)N1CCC[C@H]1C(=O)N1CCC[C@H]1C(=O)N1CCC[C@H]1C(=O)N[C@@H](CO)C(N)=O
B3: Compound No. 0132 (peptide)
peptide: H[Aib]HGTFTSDYS[αMeK]ILEK([AEEA-AEEA-γGlu-C20 diacid])KAA[Iva]EFVEWLIEGGPSSGAPPPS-NH2
modifications: N-terminus assumed
SMILES: CC[C@H](C)[C@H](NC(=O)[C@H](CC(C)C)NC(=O)[C@H](Cc1c[nH]c2ccccc12)NC(=O)[C@H](CCC(=O)O)NC(=O)[C@@H](NC(=O)[C@H](Cc1ccccc1)NC(=O)[C@H](CCC(=O)O)NC(=O)[C@](C)(CC)NC(=O)[C@H](C)NC(=O)[C@H](C)NC(=O)[C@H](CCCCN)NC(=O)[C@H](CCCCNC(=O)COCCOCCNC(=O)COCCOCCNC(=O)CC[C@H](NC(=O)CCCCCCCCCCCCCCCCCCC(=O)O)C(=O)O)NC(=O)[C@H](CCC(=O)O)NC(=O)[C@H](CC(C)C)NC(=O)[C@@H](NC(=O)[C@](C)(CCCCN)NC(=O)[C@H](CO)NC(=O)[C@H](Cc1ccc(O)cc1)NC(=O)[C@H](CC(=O)O)NC(=O)[C@H](CO)NC(=O)[C@@H](NC(=O)[C@H](Cc1ccccc1)NC(=O)[C@@H](NC(=O)CNC(=O)[C@H](Cc1c[nH]cn1)NC(=O)C(C)(C)NC(=O)[C@@H](N)Cc1c[nH]cn1)[C@@H](C)O)[C@@H](C)O)[C@@H](C)CC)C(C)C)C(=O)N[C@@H](CCC(=O)O)C(=O)NCC(=O)NCC(=O)N1CCC[C@H]1C(=O)N[C@@H](CO)C(=O)N[C@@H](CO)C(=O)NCC(=O)N[C@@H](C)C(=O)N1CCC[C@H]1C(=O)N1CCC[C@H]1C(=O)N1CCC[C@H]1C(=O)N[C@@H](CO)C(N)=O
B4: Compound No. 0131 (peptide)
peptide: H[Aib]HGTFTSDYS[αMeK]LLEK([AEEA-AEEA-γGlu-C20 diacid])KAA[Iva]EFVEWLIEGGPSSGAPPPS-NH2
modifications: N-terminus assumed
SMILES: CC[C@H](C)[C@H](NC(=O)[C@H](CC(C)C)NC(=O)[C@H](Cc1c[nH]c2ccccc12)NC(=O)[C@H](CCC(=O)O)NC(=O)[C@@H](NC(=O)[C@H](Cc1ccccc1)NC(=O)[C@H](CCC(=O)O)NC(=O)[C@](C)(CC)NC(=O)[C@H](C)NC(=O)[C@H](C)NC(=O)[C@H](CCCCN)NC(=O)[C@H](CCCCNC(=O)COCCOCCNC(=O)COCCOCCNC(=O)CC[C@H](NC(=O)CCCCCCCCCCCCCCCCCCC(=O)O)C(=O)O)NC(=O)[C@H](CCC(=O)O)NC(=O)[C@H](CC(C)C)NC(=O)[C@H](CC(C)C)NC(=O)[C@](C)(CCCCN)NC(=O)[C@H](CO)NC(=O)[C@H](Cc1ccc(O)cc1)NC(=O)[C@H](CC(=O)O)NC(=O)[C@H](CO)NC(=O)[C@@H](NC(=O)[C@H](Cc1ccccc1)NC(=O)[C@@H](NC(=O)CNC(=O)[C@H](Cc1c[nH]cn1)NC(=O)C(C)(C)NC(=O)[C@@H](N)Cc1c[nH]cn1)[C@@H](C)O)[C@@H](C)O)C(C)C)C(=O)N[C@@H](CCC(=O)O)C(=O)NCC(=O)NCC(=O)N1CCC[C@H]1C(=O)N[C@@H](CO)C(=O)N[C@@H](CO)C(=O)NCC(=O)N[C@@H](C)C(=O)N1CCC[C@H]1C(=O)N1CCC[C@H]1C(=O)N1CCC[C@H]1C(=O)N[C@@H](CO)C(N)=O

Starred links: 1 amine or outer side, 2 acyl side, 3 side chain; linkers in the order of their positions; H or OH if unused. Non-standard residues stand in square brackets, D forms with d. Groups on a side chain read outwards from the residue. No end group written: not given here. *: point of attachment. C20 diacid = O=C(O)CCCCCCCCCCCCCCCCCCC(=O)*; C17 diacid = O=C(O)CCCCCCCCCCCCCCCC(=O)*; γGlu = O=C(O)[C@H](CCC(=O)[*:2])N[*:1]; αMeY = C[C@](N)(Cc1ccc(O)cc1)C(=O)O; αMeK = C[C@](N)(CCCCN)C(=O)O; Iva = CC[C@](C)(N)C(=O)O; AEEA = NCCOCCOCC(=O)O; Aib = CC(C)(N)C(=O)O

In the first assay the target is T2, human glucagon-like peptide-1 receptor (human, UniProt P43220 24-463). The experiment in a line: cell-based or functional assay.
With B1, the “Activity against human GLP-1R (EC50 nM)” value is 0.03 nM.

B2: the “Activity against human GLP-1R (EC50 nM)” value turned out to be 0.01 nM.

For another assay, the target named is T1, human glucose-dependent insulinotropic …. Nature of the assay: cell-based or functional assay.
Consider B1, for which the “Activity against human GIPR (EC50 nM)” value is 0.027 nM.

For the molecule B2, the “Activity against human GIPR (EC50 nM)” value turned out to be 0.016 nM.

For the next assay, the target named is T3, human glucagon receptor (human, UniProt P47871 26-477). Nature of the assay: cell-based or functional assay.
T3 sequence (P47871 26-477): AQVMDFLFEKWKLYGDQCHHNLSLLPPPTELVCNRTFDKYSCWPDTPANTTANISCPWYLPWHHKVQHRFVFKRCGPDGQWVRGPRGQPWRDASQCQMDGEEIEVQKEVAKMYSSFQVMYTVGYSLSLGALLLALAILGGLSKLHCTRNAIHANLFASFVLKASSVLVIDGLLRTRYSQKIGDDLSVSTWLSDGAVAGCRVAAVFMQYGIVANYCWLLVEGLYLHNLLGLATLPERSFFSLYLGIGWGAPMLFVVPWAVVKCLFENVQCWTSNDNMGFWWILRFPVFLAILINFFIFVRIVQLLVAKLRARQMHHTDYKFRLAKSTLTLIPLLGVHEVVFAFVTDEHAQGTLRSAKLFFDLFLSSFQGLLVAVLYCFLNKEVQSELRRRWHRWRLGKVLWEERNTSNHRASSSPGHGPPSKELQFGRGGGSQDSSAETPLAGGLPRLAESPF
Turning to B1, the “Activity against human GCGR (EC50 nM)” value came out at 0.095 nM.

Turning to B2, the “Activity against human GCGR (EC50 nM)” value was 0.037 nM.

In another assay the target is T2, human glucagon-like peptide-1 receptor. Nature of the assay: cell-based or functional assay. This is another data set of the same source.
Take Y[Aib]QGTFTSDYS[αMeK]ILEK([AEEA-AEEA-γGlu-C20 diacid])KAA[Iva]EFVEWLLAGGPSSGAPPPS-NH2 [Compound No. 0129]: the “Activity against human GLP-1R (EC50 nM)” value was determined as 0.159 nM.

Take Y[Aib]QGTFTSDYS[αMeK]LLEK([AEEA-AEEA-γGlu-C20 diacid])KAA[Iva]EFVEWLLAGGPSSGAPPPS-NH2 [Compound No. 0127]: the “Activity against human GLP-1R (EC50 nM)” value was determined as 0.132 nM.

On to B3, for which the “Activity against human GLP-1R (EC50 nM)” value worked out at 0.024 nM.

Turning to B4, the “Activity against human GLP-1R (EC50 nM)” value was found to be 0.02 nM.

With H[Aib]HGTFTSDYS[αMeK]ILEK([AEEA-AEEA-γGlu-C20 diacid])QAA[Iva]EFVEWLLAGGPSSGAPPPS-NH2 [Compound No. 0130], the “Activity against human GLP-1R (EC50 nM)” value amounted to 0.048 nM.

In another assay the target is T1, human glucose-dependent insulinotropic …. Nature of the assay: cell-based or functional assay. This is another data set of the same source.
For the molecule Y[Aib]QGTFTSDYS[αMeK]ILEK([AEEA-AEEA-γGlu-C20 diacid])KAA[Iva]EFVEWLLAGGPSSGAPPPS-NH2 [Compound No. 0129], the “Activity against human GIPR (EC50 nM)” value was determined as 0.002 nM.

As for Y[Aib]QGTFTSDYS[αMeK]LLEK([AEEA-AEEA-γGlu-C20 diacid])KAA[Iva]EFVEWLLAGGPSSGAPPPS-NH2 [Compound No. 0127], the “Activity against human GIPR (EC50 nM)” value turned out to be 0.0007 nM.

Consider B3, for which the “Activity against human GIPR (EC50 nM)” value turned out to be 0.001 nM.

B4: the “Activity against human GIPR (EC50 nM)” value is 0.0007 nM.

Regarding H[Aib]HGTFTSDYS[αMeK]ILEK([AEEA-AEEA-γGlu-C20 diacid])QAA[Iva]EFVEWLLAGGPSSGAPPPS-NH2 [Compound No. 0130], the “Activity against human GIPR (EC50 nM)” value came out at 0.0005 nM.

Another assay addresses T3, human glucagon receptor. Nature of the assay: cell-based or functional assay. The source holds these as a separate data set.
Turning to Y[Aib]QGTFTSDYS[αMeK]ILEK([AEEA-AEEA-γGlu-C20 diacid])KAA[Iva]EFVEWLLAGGPSSGAPPPS-NH2 [Compound No. 0129], the “Activity against human GCGR (EC50 nM)” value came to 0.067 nM.

Consider Y[Aib]QGTFTSDYS[αMeK]LLEK([AEEA-AEEA-γGlu-C20 diacid])KAA[Iva]EFVEWLLAGGPSSGAPPPS-NH2 [Compound No. 0127], for which the “Activity against human GCGR (EC50 nM)” value stood at 0.037 nM.

Take B3: the “Activity against human GCGR (EC50 nM)” value was found to be 0.03 nM.

For B4, the “Activity against human GCGR (EC50 nM)” value turned out to be 0.026 nM.

Take H[Aib]HGTFTSDYS[αMeK]ILEK([AEEA-AEEA-γGlu-C20 diacid])QAA[Iva]EFVEWLLAGGPSSGAPPPS-NH2 [Compound No. 0130]: the “Activity against human GCGR (EC50 nM)” value was found to be 0.03 nM.

(Values after EP4745153A1, “GLP-1, GIP AND GCG RECEPTOR […] USE THEREOF” (Jiangsu Hengrui Pharmaceuticals Co., Ltd., priority 2023, dated 2025).)
